Test results: patent US20140212458A1
pKd: −log10 of the molar value. Values joined by “and” are separate entries in the source; they are usually repeats but may differ in a detail not shown here. Equal entries are not always repeated.

Assays:
[1] = target: BG505 SOSIP.664-D7324 gp140 trimer (HIV-1 BG505 (clade A)); experiment: D7324-capture ELISA, average of 2-6 titrations
[2] = target: BG505 SOSIP.664 gp140 trimer (HIV-1 BG505 (clade A)); experiment: ITC, antibody titrated into trimer
[3] = target: BG505 SOSIP.664-D7324 gp140 trimer (HIV-1 BG505 (clade A)); experiment: D7324-capture ELISA (panel A)
[4] = target: BG505 gp120-D7324 monomer (HIV-1 BG505 (clade A)); experiment: D7324-capture ELISA (panel A)
[5] = target: BG505 SOSIP.664 gp140 trimer (HIV-1 BG505 (clade A)); experiment: ITC, two-site model
[6] = target: BG505 SOSIP.664-D7324 gp140 trimer (HIV-1 BG505 (clade A)); experiment: D7324-capture ELISA (panel B)
[7] = target: BG505 SOSIP.664-His gp140 trimer (HIV-1 BG505 (clade A)); experiment: Ni-NTA-capture ELISA (panel C)
[8] = target: BG505 SOSIP.664-D7324 gp140 trimer (HIV-1 BG505 (clade A)); experiment: D7324-capture ELISA (panel D)
[9] = target: BG505 SOSIP.664 gp140 trimer (HIV-1 BG505 (clade A)); experiment: negative stain EM (not shown)
[10] = target: BG505 gp120-D7324 monomer in the presence of sCD4 (HIV-1 BG505 (clade A)); experiment: D7324-capture ELISA with sCD4 (panel B)
[11] = target: recombinant HIV-1 envelope glycoprotein gp120 BG505 clade A (HIV-1 BG505 (clade A)); experiment: ELISA on BG505 gp120
[12] = target: BG505 SOSIP.664 gp140 trimer (HIV-1 BG505 (clade A)); experiment: ITC
[13] = target: BG505 SOSIP.664 gp140 trimer (HIV-1 BG505 (clade A)); experiment: ITC; remark: listed apart in the source
[14] = target: BG505 SOSIP.664 gp140 trimer (HIV-1 BG505 (clade A)); experiment: negative stain EM, 2D class averages; Fab 480 nM, trimer 44 nM
[15] = target: BG505 SOSIP.664 gp140 trimer (HIV-1 BG505 (clade A)); experiment: negative stain EM
[16] = target: BG505 SOSIP.664 gp140 trimer (HIV-1 BG505 (clade A)); experiment: negative stain EM, 2D class averages; Fab 600 nM, trimer 40 nM
[17] = target: BG505 SOSIP.664 gp140 trimer (HIV-1 BG505 (clade A)); experiment: ITC, Fab titrated into trimer; footnote f: data previously described elsewhere (Julien 2013, the applicants' own PG9:trimer study, also an example of this filing)
[18] = target: BG505 SOSIP.664 gp140 trimer (HIV-1 BG505 (clade A)); experiment: SDS-PAGE of SEC fractions, ImageJ
[19] = target: BG505 gp120 monomer (HIV-1 BG505 (clade A)); experiment: ITC
[20] = target: BG505 gp120 monomer (HIV-1 BG505 (clade A)); experiment: ITC, Fab titrated into Env, 25 C
[21] = target: BG505 SOSIP.664 gp140 trimer (HIV-1 BG505 (clade A)); experiment: ITC, Fab titrated into Env, 25 C
[22] = target: BG505 SOSIP.664-His gp140 trimer (HIV-1 BG505 (clade A)); experiment: SPR, trimer on NTA chip, IgG 1,000 nM
[23] = target: BG505 gp41ECTO-His (HIV-1 BG505 (clade A)); experiment: Ni-NTA-capture ELISA (panel C)
[24] = target: BG505 SOSIP.664 gp140 trimer (HIV-1 BG505 (clade A)); experiment: negative stain EM, 2D class averages; Fab 860 nM, trimer 48 nM
[25] = target: BG505 SOSIP.664 gp140 trimer (HIV-1 BG505 (clade A)); experiment: negative stain EM, 2D class averages; Fab 240 nM, trimer 14 nM
[26] = target: JR-FL gp120 core with mini V3 (HIV-1 JR-FL); experiment: ITC

CD4-IgG2 (Fc fusion)
EC50 [1]: 0.155 µg/mL

PGT121 Fab
-TΔS [2]: 20.6 kcal/mol
Kd [2]: 151 nM and 7.55 µg/mL
N (stoichiometry of binding) [2]: 2.4
ΔG [2]: -9.3 kcal/mol
ΔH [2]: -29.9 kcal/mol

45-46 (antibody)
EC50 [1]: 0.127 µg/mL

F105 (antibody)
EC50 [1]: > 10 µg/mL

CH106 (antibody)
EC50 [1]: 2.57 µg/mL

2G12 (antibody)
EC50 [1]: 0.027 µg/mL
EC50 (read off the curve) [3]: 0.02 µg/mL
EC50 (read off the curve) [4]: 0.01 µg/mL
-TΔS [2]: 28.4 kcal/mol
Kd [2]: 16 nM and 2.4 µg/mL
N (stoichiometry of binding) [2]: 2.4
ΔG [2]: -10.6 kcal/mol
ΔH [2]: -39 kcal/mol
Kd2 (second, low affinity binding event) [5]: 12.3 µM

X5 (antibody)
EC50 [1]: > 10 µg/mL

PGT121 (antibody)
EC50 (read off the curve) [6]: 0.09 µg/mL
EC50 [1]: 0.095 µg/mL

PGT126 (antibody)
EC50 (read off the curve) [6]: 0.03 µg/mL
EC50 [1]: 0.026 µg/mL

CH01 (antibody)
EC50 [1]: 2.78 µg/mL

CH103 (antibody)
EC50 [1]: 0.792 µg/mL

F91 (antibody)
EC50 [1]: > 10 µg/mL

VRC01 (antibody)
EC50 [1]: 0.163 µg/mL
EC50 (read off the curve) [7]: 0.03 µg/mL

1NC9 (antibody)
EC50 [1]: 0.735 µg/mL

PGT136 (antibody)
EC50 [1]: 0.434 µg/mL

PGT145 (antibody)
EC50 [1]: 0.114 µg/mL
EC50 (read off the curve) [8]: 0.06 µg/mL

PGV04 (antibody)
EC50 [1]: 0.227 µg/mL

7B2 (antibody)
EC50 [1]: > 10 µg/mL

3BC176 (antibody)
EC50 [1]: 5.65 µg/mL

PGT122 Fab
% of images with no Fabs bound [9]: < 3%
% of images with three Fabs bound [9]: > 50%

A32 (antibody)
EC50 [1]: > 10 µg/mL
EC50 (read off the curve) [10]: 0.04 µg/mL

PG9 (antibody)
EC50 (read off the curve) [11]: 0.04 µg/mL
EC50 [1]: 0.343 µg/mL
EC50 (read off the curve) [8]: 0.4 µg/mL

12A12 (antibody)
EC50 [1]: 0.08 µg/mL

PGT122 (antibody)
EC50 [1]: 0.159 µg/mL

PGT127 Fab
pKd [12]: 7.15
N (stoichiometry of binding) [13]: < 3

PG16 (antibody)
EC50 (read off the curve) [11]: 0.2 µg/mL
EC50 [1]: 0.199 µg/mL
EC50 (read off the curve) [8]: 0.1 µg/mL

b6 Fab
% 1 Fab bound [14]: 6%
% 2 Fabs bound [14]: 0%
% 3 Fabs bound [14]: 0%
% trimer alone [14]: 94%
particles, 1 Fab bound [14]: 354 particles
particles, 2 Fabs bound [14]: 0 particles
particles, 3 Fabs bound [14]: 0 particles
particles, trimer alone [14]: 5610 particles

3BNC60 (antibody)
EC50 (read off the curve) [6]: 0.03 µg/mL
EC50 [1]: 0.095 µg/mL

19b Fab
% of trimers occupied by one, two or three Fabs [15]: 39%
% 1 Fab bound [16]: 30%
% 2 Fabs bound [16]: 8%
% 3 Fabs bound [16]: 1%
% trimer alone [16]: 61%
particles, 1 Fab bound [16]: 12500 particles
particles, 2 Fabs bound [16]: 3050 particles
particles, 3 Fabs bound [16]: 211 particles
particles, trimer alone [16]: 25100 particles

3BC315 (antibody)
EC50 [1]: 0.962 µg/mL

PGT128 Fab
-TΔS [2]: 11.6 kcal/mol
Kd [2]: 5.7 nM and 0.285 µg/mL
N (stoichiometry of binding) [2]: 2.3
ΔG [2]: -11.2 kcal/mol
ΔH [2]: -22.8 kcal/mol
Kd2 (second, low affinity binding event) [5]: 20 µM

PGV04 Fab
% of images with no Fabs bound [9]: < 3%
% of images with three Fabs bound [9]: > 50%

PG9 Fab
-TΔS [17]: 7.8 kcal/mol
Kd [17]: 11 nM and 0.55 µg/mL
N (stoichiometry of binding) [17]: 0.8
ΔG [17]: -10.9 kcal/mol
ΔH [17]: -18.7 kcal/mol
pKd [12]: 7.52
gp140 protomers per PG9 Fab [18]: 3
pKd [19]: 7.52 to 7.70
pKd [13]: 7.52 to 7.70
-TΔS [20]: 17.2 kcal/mol
pKd [20]: 7.51
N (stoichiometry of binding) [20]: 0.4
ΔG [20]: -10.2 kcal/mol
ΔH [20]: -27.4 kcal/mol
ΔG [21]: -10.1 kcal/mol
ΔH [21]: -20.6 kcal/mol

HJ16 (antibody)
EC50 [1]: 4.38 µg/mL

PGT123 (antibody)
EC50 [1]: 0.127 µg/mL

PGT135 (antibody)
EC50 [1]: 0.521 µg/mL

VRC03 (antibody)
EC50 (read off the curve) [6]: 0.6 µg/mL
EC50 [1]: 0.647 µg/mL

PGT128 (antibody)
EC50 (read off the curve) [6]: 0.04 µg/mL
plateau response (RU) [22]: 750 RU
EC50 [1]: 0.058 µg/mL
EC50 (read off the curve) [3]: 0.04 µg/mL
EC50 (read off the curve) [4]: 0.04 µg/mL

VRC06b (antibody)
EC50 (read off the curve) [6]: 0.4 µg/mL
EC50 [1]: 0.345 µg/mL

PGT127 (antibody)
EC50 [1]: 0.066 µg/mL

PGT125 (antibody)
EC50 (read off the curve) [6]: 0.04 µg/mL
EC50 [1]: 0.047 µg/mL

3BNC117 (antibody)
EC50 (read off the curve) [6]: 0.1 µg/mL
EC50 [1]: 0.102 µg/mL

F240 (antibody)
EC50 [1]: > 10 µg/mL
EC50 (read off the curve) [23]: 0.01 µg/mL

VRC06 (antibody)
EC50 [1]: 1.1 µg/mL

b12 (antibody)
EC50 (read off the curve) [11]: 0.03 µg/mL
EC50 [1]: > 10 µg/mL

F240 Fab
% 1 Fab bound [24]: 2%
% 2 Fabs bound [24]: 0%
% 3 Fabs bound [24]: 0%
% trimer alone [24]: 98%
particles, 1 Fab bound [24]: 154 particles
particles, 2 Fabs bound [24]: 0 particles
particles, 3 Fabs bound [24]: 0 particles
particles, trimer alone [24]: 6260 particles

14e Fab
% 1 Fab bound [25]: 17%
% 2 Fabs bound [25]: 2%
% 3 Fabs bound [25]: 0%
% trimer alone [25]: 81%
particles, 1 Fab bound [25]: 4440 particles
particles, 2 Fabs bound [25]: 610 particles
particles, 3 Fabs bound [25]: 0 particles
particles, trimer alone [25]: 21900 particles

8ANC195 (antibody)
EC50 [1]: 2.06 µg/mL

PGT130 (antibody)
EC50 [1]: 0.524 µg/mL

PGT135 Fab
pKd [26]: 7.09
% of images with no Fabs bound [9]: < 3%
% of images with three Fabs bound [9]: > 50%

CH31 (antibody)
EC50 [1]: 0.347 µg/mL

b6 (antibody)
plateau response (RU) [22]: 30 RU
EC50 [1]: 0.871 µg/mL
EC50 (read off the curve) [4]: 0.09 µg/mL
